In publication PMC5524754, “Angiopoietin-like 4 induces a β-catenin-mediated upregulation of ID3 in fibroblasts to reduce scar collagen expression” (Scientific Reports, 2017) one finds Kd data, which are given here for one molecule.

This assay has as its target T1, Extracellular domain of human CDH11 (Abnova) (human, UniProt P55287 54-617).
T1 construct: cadherin-11 (CDH11), human, extracellular domain; No catalogue number is printed; also called cadherin-11; immobilized CDH11; source: bought: Abnova
T1 sequence (looked up): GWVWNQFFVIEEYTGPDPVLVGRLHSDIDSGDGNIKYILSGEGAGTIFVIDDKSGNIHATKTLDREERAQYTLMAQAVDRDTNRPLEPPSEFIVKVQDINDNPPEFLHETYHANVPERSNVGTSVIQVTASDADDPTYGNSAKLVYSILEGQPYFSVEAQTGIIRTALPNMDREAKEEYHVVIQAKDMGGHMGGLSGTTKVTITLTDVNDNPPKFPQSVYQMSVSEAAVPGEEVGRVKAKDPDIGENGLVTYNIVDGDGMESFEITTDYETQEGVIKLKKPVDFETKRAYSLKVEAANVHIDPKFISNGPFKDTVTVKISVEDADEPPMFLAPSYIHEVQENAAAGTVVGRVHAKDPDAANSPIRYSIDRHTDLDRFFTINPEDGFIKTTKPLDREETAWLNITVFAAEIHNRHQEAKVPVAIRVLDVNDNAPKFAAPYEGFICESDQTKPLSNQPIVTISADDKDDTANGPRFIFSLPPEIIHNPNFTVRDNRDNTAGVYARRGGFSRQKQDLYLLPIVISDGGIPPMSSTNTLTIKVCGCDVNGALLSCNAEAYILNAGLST
As to the kind of experiment: SPR; BIACore 3000; extracellular domain of human CDH11 immobilised on a CM5 chip by amine coupling; PBS running buffer; cANGPTL4 injected at 28.6, 14.3, 7.15, 3.58 and 1.79 nM, 10 uL/min; Langmuir 1:1 model. The note with it: both partners purified.

B1: recombinant human cANGPTL4 (C-terminal fibrinogen-like domain of angiopoietin-like 4) (domain or fragment, UniProt Q9BY76 179-401, looked up)
chain: SRLHRLPRDCQELFQVGERQSGLFEIQPQGSPPFLVNCKMTSDGGWTVIQRRHDGSVDFNRPWEAYKAGFGDPHGEFWLGLEKVHSITGDRNSRLAVQLRDWDGNAELLQFSVHLGGEDTAYSLQLTAPVAGQLGATTVPPSGLSVPFSTWDQDHDLRRDKNCAKSLSGGWWFGTCSHSNLNGQYFRSIPQQRQKLKKGIFWKTWRGRYYPLQATTMLIQPMA
notes: angiopoietin-like 4 (ANGPTL4), human, C-terminal fibrinogen-like domain (cANGPTL4); also called recombinant cANGPTL4 protein; source: purified protein for SPR, added to fibroblast cultures and applied to wounds
Regarding B1, binding was put at a Kd of 42.8 nM.
